Measured values as given in patent US5668265, “Bi-directional oligonucleotides that bind thrombin” (Becton Dickinson and Company).

Target: alpha-thrombin (Homo sapiens, UniProt P00734;P00734 P00734:315-363,P00734:364-622)
Test: SPR; apparent; solution competition vs immobilized consensus aptamer; same buffer, 25 C

Binder: GGTTGGTGTGGTTGG (structured_DNA) [Compound 10 (consensus thrombin aptamer)]
- Kd: 6 nM

Binder: GGTTGGTT (ssDNA) [Compound 12 (single segment)]
- Kd: 1500 nM
